Laboratory results from patent US20090155271A1 (ZymoGenetics, published 2009).
Values joined by “and” are separate entries in the source; they are usually repeats but may differ in a detail not shown here. Identical values can stand only once.

B2: human IL-17F (ligand)
chain: RKIPKVGHTFFQKPESCPPVPGGSMKLDIGIINENQRVSMSRNIESRSTSPWNYTVTWDPNRYPSEVVQAQCRNLGCINAQGKEDISMNSVPIQQETLVVRRKHQGCSVSFQLEKVLVTVGCTCVTPVIHHVQ
notes: also called hIL-17F; huIL-17F

How the values were obtained:
[1] = target: B2; assay: cell-based or functional assay
[2] = target: T1, human IL-17A (human, UniProt Q16552 24-155); assay: cell-based or functional assay
T1 sequence: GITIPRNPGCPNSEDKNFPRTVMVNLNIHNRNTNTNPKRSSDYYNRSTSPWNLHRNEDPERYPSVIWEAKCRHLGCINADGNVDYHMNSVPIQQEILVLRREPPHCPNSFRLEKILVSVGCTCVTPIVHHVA

[3] = target: B2; assay: cell-based or functional assay; remark: listed apart in the source
[4] = target: T1, human IL-17A; assay: cell-based or functional assay; remark: listed apart in the source
[5] = target: B2; assay: Biacore, receptor captured by anti-human IgG-Fc on CM5, ligand series
Excerpt: (§1) The protocol was optimized to capture receptor at a theoretical binding max. before injecting a concentration series of each ligand to observe association and dissociation. […] The surface was regenerated with 2×30 sec. injections of pH 1.75 glycine between cycles.

[6] = target: T1, human IL-17A; assay: as above
Excerpt: as §1

[7] = target: B2; assay: Biacore, rounded summary of Table 10
Excerpt: as §1

[8] = target: T1, human IL-17A; assay: Biacore, rounded summary of Table 10
Excerpt: as §1

[9] = target: T2, human IL-17RC, x1 splice variant, on transfected cells (human, UniProt Q8NAC3 21-791); assay: cell-based or functional assay
T2 sequence: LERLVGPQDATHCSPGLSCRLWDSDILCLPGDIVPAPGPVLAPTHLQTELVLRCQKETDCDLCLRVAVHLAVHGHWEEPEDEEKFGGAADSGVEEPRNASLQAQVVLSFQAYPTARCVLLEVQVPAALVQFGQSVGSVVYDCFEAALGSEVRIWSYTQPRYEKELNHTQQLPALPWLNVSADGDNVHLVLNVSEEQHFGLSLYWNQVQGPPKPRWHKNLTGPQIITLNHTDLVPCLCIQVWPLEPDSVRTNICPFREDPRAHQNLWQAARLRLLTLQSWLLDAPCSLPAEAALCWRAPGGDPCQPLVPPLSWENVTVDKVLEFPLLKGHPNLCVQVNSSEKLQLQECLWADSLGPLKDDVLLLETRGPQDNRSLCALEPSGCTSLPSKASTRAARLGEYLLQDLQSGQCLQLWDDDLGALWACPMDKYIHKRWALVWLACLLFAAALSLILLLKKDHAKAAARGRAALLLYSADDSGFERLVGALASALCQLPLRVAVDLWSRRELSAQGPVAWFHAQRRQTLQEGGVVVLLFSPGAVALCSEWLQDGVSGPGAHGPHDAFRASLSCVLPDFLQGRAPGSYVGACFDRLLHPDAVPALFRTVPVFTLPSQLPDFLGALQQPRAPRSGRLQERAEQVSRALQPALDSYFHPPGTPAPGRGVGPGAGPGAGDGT

[10] = target: T3, human IL-17RA on transfected cells (human, UniProt Q96F46 33-320); assay: cell-based or functional assay
T3 sequence: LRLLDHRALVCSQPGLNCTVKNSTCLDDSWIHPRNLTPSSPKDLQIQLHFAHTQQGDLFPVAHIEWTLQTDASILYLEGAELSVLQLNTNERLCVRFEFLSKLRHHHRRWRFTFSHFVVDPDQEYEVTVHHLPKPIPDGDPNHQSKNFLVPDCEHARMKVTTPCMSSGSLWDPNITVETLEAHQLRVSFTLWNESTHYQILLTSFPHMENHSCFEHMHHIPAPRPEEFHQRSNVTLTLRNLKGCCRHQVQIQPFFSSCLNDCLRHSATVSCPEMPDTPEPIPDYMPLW

[11] = target: T2, human IL-17RC, x1 splice variant, on …; assay: 100x molar cold competitor, 125I IL-17A on BHK hIL-17RC cells
Method: (§2) Cold competitors were added in 100 fold molar excess. […] Wells were incubated on ice for 1-hour followed by two washes with PBS (Invitrogen 20012-027) and one wash with a high salt solution (1.5M NaCL, 50 mM HEPES pH 7.4). Wells were extracted with 500 ul of 0.8M NaOH for 30 min. at room temperature and counts per minute were measured in a gamma counter (Packard Cobra II A5005).

[12] = target: T2, human IL-17RC, x1 splice variant, on …; assay: 100x molar cold competitor, 125I IL-17F on BHK hIL-17RC cells
Method: as §2

B1: Variant 1454 (exons 1-6 of human IL-17RA and 8-16 of human IL-17RCx1, fused to Fc5) (Fc fusion)
chain: SLRLLDHRALVCSQPGLNCTVKNSTCLDDSWIHPRNLTPSSPKDLQIQLHFAHTQQGDLFPVAHIEWTLQTDASILYLEGAELSVLQLNTNERLCVRFEFLSKLRHHHRRWRFTFSHFVVDPDQEYEVTVHHLPKPIPDGDPNHQSKNFLVPDCEHARMKVTTPCMSSALPWLNVSADGDNVHLVLNVSEEQHFGLSLYWNQVQGPPKPRWHKNLTGPQIITLNHTDLVPCLCIQVWPLEPDSVRTNICPFREDPRAHQNLWQAARLRLLTLQSWLLDAPCSLPAEAALCWRAPGGDPCQPLVPPLSWENVTVDKVLEFPLLKGHPNLCVQVNSSEKLQLQECLWADSLGPLKDDVLLLETRGPQDNRSLCALEPSGCTSLPSKASTRAARLGEYLLQDLQSGQCLQLWDDDLGALWACPMDKYIHKEPKSSDKTHTCPPCPAPEAEGAPSVFLFPPKPKDTLMISRTPEVTCVVVDVSHEDPEVKFNWYVDGVEVHNAKTKPREEQYNSTYRVVSVLTVLHQDWLNGKEYKCKVSNKALPSSIEKTISKAKGQPREPQVYTLPPSRDELTKNQVSLTCLVKGFYPSDIAVEWESNGQPENNYKTTPPVLDSDGSFFLYSKLTVDKSRWQQGNVFSCSVMHEALHNHYTQKSLSLSPGK
notes: also called IL17RA/RC 1454; soluble IL-17RC/IL-17RA polypeptide
[1]
  IC50, luciferase activation of hIL-17RA/NIH3T3/KZ142.8 cells by 20 ng/ml IL-17F: 0.48 µg/mL
  IC50, luciferase activation of hIL-17RCX4/NIH3T3/KZ142.8 cells by 1 ng/ml IL-17F: 0.8 µg/mL
[2]
  IC50, luciferase activation of hIL-17RA/NIH3T3/KZ142.8 cells by 0.5 ng/ml IL-17A: 0.007 µg/mL
[3]
  IC50, huIL-17F(50 ng/ml) induction of G-CSF in SAEC: 1.2 µg/mL
  IC50, huIL-17F(50 ng/ml) induction of IL-8 in SAEC: 0.57 µg/mL
[4]
  IC50, huIL-17A(10 ng/ml) induction of G-CSF in SAEC: 0.14 µg/mL
  IC50, huIL-17A(10 ng/ml) induction of IL-8 in SAEC: 0.03 µg/mL
[5]
  Kd: 0.143 nM and 0.126 nM
  koff: 0.000261 s⁻¹ and 0.000315 s⁻¹
  kon: 1.82e+06 M⁻¹ s⁻¹ and 2.49e+06 M⁻¹ s⁻¹
[6]
  Kd: 0.0439 nM and 0.0382 nM
  koff: 6.22e-05 s⁻¹ and 9.95e-05 s⁻¹
  kon: 1.42e+06 M⁻¹ s⁻¹ and 2.61e+06 M⁻¹ s⁻¹
[7]
  Kd: ~0.14 nM
[8]
  Kd: ~0.04 nM

## B2
[9]
  EC50, ap1/nfkb luciferase in nih3t3/kz142.8/hcytor14X1 cells: 0.00061 µg/mL
[10]
  EC50, ap1/nfkb luciferase in nih3t3/kz142.8/IL-17R cells: 0.0124 µg/mL
[11]
  fold reduction of 125I IL-17A binding: ~7 fold
[12]
  fold reduction of 125I IL-17F binding: ~5 fold

B3: mouse IL-17A (ligand)
chain: AAIIPQSSACPNTEAKDFLQNVKVNLKVFNSLGAKVSSRRPSDYLNRSTSPWTLHRNEDPDRYPSVIWEAQCRHQRCVNAEGKLDHHMNSVLIQQEILVLKREPESCPFTFRVEKMLVGVGCTCVASIVRQAA
[9]
  EC50, ap1/nfkb luciferase in nih3t3/kz142.8/hcytor14x1 cells: ~0.004 µg/mL
